Among the data in US20260031189A1, “METHOD AND SYSTEMS FOR PREDICTION OF HLA CLASS II-SPECIFIC EPITOPES AND CHARACTERIZATION OF CD4+ T CELLS” (BioNTech US Inc., priority 2022, published 2026) are IC50 values, retold here.

A value given as a limit tells only on which side of the number the result lay.

The chains are these.
T1: HLA-DRA*01:01/DRB1*15:01 soluble heterodimer (human)
T1 chain 1: not shown
T1 chain 2: not shown

T2: HLA-DPA1*01:03/DPB1*04:01 soluble heterodimer (human), P20036
T2 chain 1: not shown
T2 chain 2: not shown

The first test addresses T1, HLA-DRA*01:01/DRB1*15:01 soluble …. As to the kind of experiment: FP competition with FITC probe, HLA-sDM, average.
As for ADAGFIKQYGDCLGDIA (modifications not checked) [S829-845], the IC50 (in general, the concentration needed to halve the response being measured) was found to be 56 nM. The same measure, in the same setting: next, PTESIVRFPNITNLCPF (modifications not checked) [S322-338]: 26 nM.

FQTLLALHRSYLTPGDS (modifications not checked) [S238-254] registered an IC50 of 140 nM. CSNLLLQYGSFCTQ (modifications not checked) [S749-762] showed an IC50 of 270 nM.

The target in the next test is T2, HLA-DPA1*01:03/DPB1*04:01 soluble …. Description: FP competition with FITC probe, HLA-sDM, average.
On to EKKYFAATKFEPLAARL (modifications not checked), for which the IC50 turned out to be 30 nM. In other words, the double-digit nanomolar range. Take CTFEYVSQPFLMDLEGK (modifications not checked) [S166-182]: the IC50 is 11 nM. IGINITRFQTLLA (modifications not checked) [S231-243] registered an IC50 of 510 nM.

CEFQFCNDPFLGVYYHK (modifications not checked) [S131-147]: the IC50 stood at 58 nM.

In another test the target is HLA-DQA1*01:02/DQB1*06:02 soluble heterodimer (human), P01920. Description: FP competition with FITC probe, HLA-sDM, average.
As for PDKVFRSSVLHSTQDL (modifications not checked) [S39-54], the IC50 worked out at 1600 nM.

Regarding EIDRLNEVAKNLNES (modifications not checked) [S1182-1196], the IC50 is > 50000 nM. AAATAGTTVYGAKAA (modifications not checked): the IC50 was 1100 nM. LPDDFTGCVIAWNSNN (modifications not checked) [S425-440]: the IC50 is 390 nM. Compared with the last molecule, the IC50 is about 2.8-fold lower. The same measure, in the same setting: the value for TQQLIRAAEIRASAN (modifications not checked) [S1009-1023] was 520 nM. Consider IGINITRFQTLLA (modifications not checked) [S231-243], for which the IC50 is > 50000 nM. Still for that read-out and setting: next, GGFNFSQILPDPS (modifications not checked) [S798-810]: 1200 nM.
